Laboratory results reported in the supplement of paper PMC11316812.
± gives the standard deviation of the averaged measurements.

Experiments:
MCF7 = assay: percentage of EdU-negative (G0-arrested) nuclei per well, 72 h; higher = more G0 arrest; details: reference: sequence is the full UniProt precursor, the tested protein was the secreted form or ectodomain
hTERT-HMEC = assay: as above; details: reference: sequence is the full UniProt precursor, the tested protein was the secreted form or ectodomain
[1] = protein concentration 0.0225 µM
[2] = protein concentration 0.03123 µM
[3] = protein concentration 0.3123 µM
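Note: secreted proteins added to cultured cells, EdU pulse at the end, nuclei found by Hoechst imaging, EdU status from nuclear versus surrounding ring intensity ratio, PBS as neutral control.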

Sequence	percentage of EdU-negative (MCF7; [1]) [%]	percentage of EdU-negative (MCF7; protein concentration 0.225 µM) [%]	percentage of EdU-negative (hTERT-HMEC; [1]) [%]	percentage of EdU-negative (hTERT-HMEC; protein concentration 0.225 µM) [%]	percentage of EdU-negative (MCF7; [2]) [%]	percentage of EdU-negative (MCF7; [3]) [%]	percentage of EdU-negative (hTERT-HMEC; [2]) [%]	percentage of EdU-negative (hTERT-HMEC; [3]) [%]
MWTLGRRAVAGLLASPSPAQAQTLTRVPRPAELAPLCGRRGLRTDIDATCTPRRASSNQRGLNQIWNVKKQSVYLMNLRKSGTLGHPGSLDETTYERLAEETLDSLAEFFEDLADKPYTFEDYDVSFGSGVLTVKLGGDLGTYVINKQTPNKQIWLSSPSSGPKRYDWTGKNWVYSHDGVSLHELLAAELTKALKTKLDLSSLAYSGKDA	25.6 ± 0.72	26.7 ± 4	4.76 ± 0.24	9.96 ± 1	–	–	–	–
MWTSGRMSNAKNWLGLGMSLYFWGLMDLTTTVLSDTPTPQGELEALLSDKPQSHQRTKRSWVWNQFFVLEEYTGTDPLYVGKLHSDMDRGDGSIKYILSGEGAGIVFTIDDTTGDIHAIQRLDREERAQYTLRAQALDRRTGRPMEPESEFIIKIQDINDNEPKFLDGPYVATVPEMSPVGTSVIQVTATDADDPTYGNSARVVYSILQGQPYFSVDSKTGVIRTALMNMDREAKEYYEVIIQAKDMGGQLGGLAGTTTVNITLSDVNDNPPRFPQKHYQMSVLESAPISSTVGRVFAKDLDEGINAEMKYTIVDGDGADAFDISTDPNFQVGIITVKKPLSFESKKSYTLKVEGANPHLEMRFLNLGPFQDTTTVHISVEDVDEPPVFEPGFYFVEVPEDVAIGTTIQIISAKDPDVTNNSIRYSIDRSSDPGRFFYVDITTGALMTARPLDREEFSWHNITVLAMEMNNPSQVGSVPVTIKVLDVNDNAPEFPRFYEAFVCENAKAGQLIQTVSAVDQDDPRNGQHFYYSLAPEAANNPNFTIRDNQDNTARILTRRSGFRQQEQSVFHLPILIADSGQPVLSSTGTLTIQVCSCDDDGHVMSCSPEAYMLPVSLSRGALIAILACIFVLLVLVLLILSMRRHRKQPYIIDDEENIHENIVRYDDEGGGEEDTEAFDIAAMWNPREAQAGAAPKTRQDMLPEIESLSRYVPQTCAVNSTVHSYVLAKLYEADMDLWAPPFDSLQTYMFEGDGSVAGSLSSLQSATSDSEQSFDFLTDWGPRFRKLAELYGASEGPAPLW [Q9HBT6]	28 ± 0.47	36 ± 0.13	3.9 ± 0.76	50.2 ± 7	–	–	–	–
MWVLGIAATFCGLFLLPGFALQIQCYQCEEFQLNNDCSSPEFIVNCTVNVQDMCQKEVMEQSAGIMYRKSCASSAACLIASAGYQSFCSPGKLNSVCISCCNTPLCNGPRPKKRGSSASALRPGLRTTILFLKLALFSAHC [Q8N2G4]	25.13 ± 0.22	25.1 ± 1.1	5.36 ± 1.2	4.964 ± 0.041	–	–	–	–
MWVPVVFLTLSVTWIGAAPLILSRIVGGWECEKHSQPWQVLVASRGRAVCGGVLVHPQWVLTAAHCIRNKSVILLGRHSLFHPEDTGQVFQVSHSFPHPLYDMSLLKNRFLRPGDDSSHDLMLLRLSEPAELTDAVKVMDLPTQEPALGTTCYASGWGSIEPEEFLTPKKLQCVDLHVISNDVCAQVHPQKVTKFMLCAGRWTGGKSTCSGDSGGPLVCNGVLQGITSWGSEPCALPERPSLYTKVVHYRKWIKDTIVANP	26.3 ± 1.2	25 ± 2	4.97 ± 0.14	5.29 ± 0.6	27.3 ± 0.96	26.3 ± 0.32	4.99 ± 0.4	6.47 ± 0.73
MWWRVLSLLAWFPLQEASLTNHTETITVEEGQTLTLKCVTSLRKNSSLQWLTPSGFTIFLNEYPALKNSKYQLLHHSANQLSITVPNVTLQDEGVYKCLHYSDSVSTKEVKVIVLATPFKPILEASVIRKQNGEEHVVLMCSTMRSKPPPQITWLLGNSMEVSGGTLHEFETDGKKCNTTSTLIIHTYGKNSTVDCIIRHRGLQGRKLVAPFRFEDLVTDEETASDALERNSLSSQDPQQPTSTVSVTEDSSTSEIDKEEKEQTTQDPDLTTEANPQYLGLARKKSGILLLTLVSFLIFILFIIVQLFIMKLRKAHVIWKKENEVSEHTLESYRSRSNNEETSSEEKNGQSSHPMRCMNYITKLYSEAKTKRKENVQHSKLEEKHIQVPESIV	25.3 ± 1.9	25.7 ± 2.4	4.57 ± 0.2	4.66 ± 0.87	–	–	–	–
